Molecular target: the molecule itself
Test: non-reducing SDS-PAGE with Western blot; lysates of stably transfected HEK293 cells denatured in sample buffer with or without a reducing agent; blotted with anti-HA

Protein	stoichiometry N
HA-tagged WT Endoglin (receptor, UniProt P17813 26-658, looked up, Endoglin (CD105), wild type, encoded by ENG; Seen as a dimer on a non-reducing gel; also called Endoglin WT; ENG-WT; source: HEK293, stably transfected (pcDNA3.0), in lysate) ETVHCDLQPVGPERGEVTYTTSQVSKGCVAQAPNAILEVHVLFLEFPTGPSQLELTLQASKQNGTWPREVLLVLSVNSSVFLHLQALGIPLHLAYNSSLVTFQEPPGVNTTELPSFPKTQILEWAAERGPITSAAELNDPQSILLRLGQAQGSLSFCMLEASQDMGRTLEWRPRTPALVRGCHLEGVAGHKEAHILRVLPGHSAGPRTVTVKVELSCAPGDLDAVLILQGPPYVSWLIDANHNMQIWTTGEYSFKIFPEKNIRGFKLPDTPQGLLGEARMLNASIVASFVELPLASIVSLHASSCGGRLQTSPAPIQTTPPKDTCSPELLMSLIQTKCADDAMTLVLKKELVAHLKCTITGLTFWDPSCEAEDRGDKFVLRSAYSSCGMQVSASMISNEAVVNILSSSSPQRKKVHCLNMDSLSFQLGLYLSPHFLQASNTIEPGQQSFVQVRVSPSVSEFLLQLDSCHLDLGPEGGTVELIQGRAAKGNCVSLLSPSPEGDPRFSFLLHFYTVPIPKTGTLSCTVALRPKTGSQDQEVHRTVFMRLNIISPDLSGCTSKGLVLPAVLGITFGAFLIGALLTAALWYIYSHTRSPSKREPVVAVAAPASSESSSTNHSIGSTQSTPCSTSSMA	2
HA-tagged Endoglin mutant variant P165L (receptor, UniProt P17813 26-658, looked up, Endoglin (CD105) with the HHT1 disease-causing missense variant P165L, made by site directed mutagenesis; Retained in the ER; also called ENG-P165L; p; P165L; source: HEK293, stably transfected (pcDNA3.0), in lysate) ETVHCDLQPVGPERGEVTYTTSQVSKGCVAQAPNAILEVHVLFLEFPTGPSQLELTLQASKQNGTWPREVLLVLSVNSSVFLHLQALGIPLHLAYNSSLVTFQEPPGVNTTELPSFPKTQILEWAAERGPITSAAELNDLQSILLRLGQAQGSLSFCMLEASQDMGRTLEWRPRTPALVRGCHLEGVAGHKEAHILRVLPGHSAGPRTVTVKVELSCAPGDLDAVLILQGPPYVSWLIDANHNMQIWTTGEYSFKIFPEKNIRGFKLPDTPQGLLGEARMLNASIVASFVELPLASIVSLHASSCGGRLQTSPAPIQTTPPKDTCSPELLMSLIQTKCADDAMTLVLKKELVAHLKCTITGLTFWDPSCEAEDRGDKFVLRSAYSSCGMQVSASMISNEAVVNILSSSSPQRKKVHCLNMDSLSFQLGLYLSPHFLQASNTIEPGQQSFVQVRVSPSVSEFLLQLDSCHLDLGPEGGTVELIQGRAAKGNCVSLLSPSPEGDPRFSFLLHFYTVPIPKTGTLSCTVALRPKTGSQDQEVHRTVFMRLNIISPDLSGCTSKGLVLPAVLGITFGAFLIGALLTAALWYIYSHTRSPSKREPVVAVAAPASSESSSTNHSIGSTQSTPCSTSSMA	2
HA-tagged Endoglin mutant variant V105D (receptor, UniProt P17813 26-658, looked up, Endoglin (CD105) with the HHT1 disease-causing missense variant V105D, made by site directed mutagenesis; Retained in the ER; also called ENG-V105D; p; V105D; source: HEK293, stably transfected (pcDNA3.0), in lysate) ETVHCDLQPVGPERGEVTYTTSQVSKGCVAQAPNAILEVHVLFLEFPTGPSQLELTLQASKQNGTWPREVLLVLSVNSSDFLHLQALGIPLHLAYNSSLVTFQEPPGVNTTELPSFPKTQILEWAAERGPITSAAELNDPQSILLRLGQAQGSLSFCMLEASQDMGRTLEWRPRTPALVRGCHLEGVAGHKEAHILRVLPGHSAGPRTVTVKVELSCAPGDLDAVLILQGPPYVSWLIDANHNMQIWTTGEYSFKIFPEKNIRGFKLPDTPQGLLGEARMLNASIVASFVELPLASIVSLHASSCGGRLQTSPAPIQTTPPKDTCSPELLMSLIQTKCADDAMTLVLKKELVAHLKCTITGLTFWDPSCEAEDRGDKFVLRSAYSSCGMQVSASMISNEAVVNILSSSSPQRKKVHCLNMDSLSFQLGLYLSPHFLQASNTIEPGQQSFVQVRVSPSVSEFLLQLDSCHLDLGPEGGTVELIQGRAAKGNCVSLLSPSPEGDPRFSFLLHFYTVPIPKTGTLSCTVALRPKTGSQDQEVHRTVFMRLNIISPDLSGCTSKGLVLPAVLGITFGAFLIGALLTAALWYIYSHTRSPSKREPVVAVAAPASSESSSTNHSIGSTQSTPCSTSSMA	2

Source: paper PMC8916587, “Endoglin Wild Type and Variants Associated With Hereditary Hemorrhagic Telangiectasia Type 1 Undergo Distinct Cellular Degradation Pathways” (Frontiers in Molecular Biosciences, 2022)
